# Experimental data from article PMC9340783, “Development of a fully human anti‐GITR antibody with potent antitumor activity using H2L2 mice” (FEBS Open Bio, 2022).
# T1: cynoGITR ECD hFc (Macaca fascicularis)
# T1 construct: cynomolgus GITR, extracellular domain, Gln20-Glu155, NCBI XP_005545180.1; also called cynoGITR protein; cGITR; source: FreeStyle 293F, transiently transfected, purified by protein A
# T1 chain: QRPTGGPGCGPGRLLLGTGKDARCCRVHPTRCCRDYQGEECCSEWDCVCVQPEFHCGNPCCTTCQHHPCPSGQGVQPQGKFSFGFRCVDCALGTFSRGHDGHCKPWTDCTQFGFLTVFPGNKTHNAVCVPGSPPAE
# T2: cynoGITR on 293F‐cynoGITR cells (Macaca fascicularis)
# T2 construct: also called 293F‐cGITR
# T2 chain: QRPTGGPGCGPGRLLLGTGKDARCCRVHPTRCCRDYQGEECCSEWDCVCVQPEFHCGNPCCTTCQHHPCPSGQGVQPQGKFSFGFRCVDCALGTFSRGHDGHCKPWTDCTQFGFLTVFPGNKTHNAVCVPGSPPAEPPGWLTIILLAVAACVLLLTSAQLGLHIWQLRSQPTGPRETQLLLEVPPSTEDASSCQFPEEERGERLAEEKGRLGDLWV
# Tests used:
# [1] = target: T3, human GITR on 293F‐hGITR cells (Homo sapiens (Human)., UniProt Q9Y5U5-1); experiment: cell-based or functional assay
# human OX40 ECD hFc = target: T4, human OX40 ECD hFc (Homo sapiens (Human)., UniProt P43489); experiment: ELISA; indirect ELISA; antigen hFc fusion protein coated on 96-well plates (1 μg·mL^−1 overnight at 4 °C in Fig. 3B), antibody added, detected with anti-rat IgG/hIgG-peroxidase antibody; conditions: both partners purified
# T4 construct: human OX40, extracellular domain
# 4‐1BB ECD hFc = target: T5, 4‐1BB ECD hFc (Homo sapiens (Human)., UniProt Q07011); experiment: as above; conditions: both partners purified
# T5 construct: 4-1BB, extracellular domain; called a paralogue of human GITR; The legend's word 'human' stands before OX40 only; human is likely
# hGITR ECD hFc [2] = target: T6, hGITR ECD hFc (Homo sapiens (Human)., UniProt Q9Y5U5, Thr45Ala); experiment: as above; conditions: both partners purified
# T6 construct: human GITR (glucocorticoid-induced TNF receptor-related), extracellular domain, Gln26-Glu161 with Thr45Ala, UniProt Q9Y5U5.1; also called human GITR protein; source: FreeStyle 293F, transiently transfected, purified by protein A
# cynoGITR ECD hFc [3] = target: T1, cynoGITR ECD hFc; experiment: as above; conditions: both partners purified
# hGITR ECD hFc [4] = target: T6, hGITR ECD hFc; experiment: SPR; Biacore T200; hGITR ECD hFc immobilised on a Series S CM5 chip; antibody 0, 3.125, 6.25, 12.5, 25 and 50 nM; association 180 s, dissociation 600 s; conditions: both partners purified
# [5] = target: T3, human GITR on 293F‐hGITR cells; experiment: flow cytometry on cells; 293F‐hGITR or 293F‐cynoGITR cells incubated with antibodies at 4 °C for 1 h, fluorescent anti-rat/human secondary antibody; EC50 of MFI curve; conditions: one partner purified
# [6] = target: T2, cynoGITR on 293F‐cynoGITR cells; experiment: as above; conditions: one partner purified
# hGITR ECD hFc [7] = target: T6, hGITR ECD hFc; experiment: ELISA; indirect ELISA; antigen hFc fusion protein coated on 96-well plates (1 μg·mL^−1 overnight at 4 °C in Fig. 3B), antibody added, detected with anti-rat IgG/hIgG-peroxidase antibody; conditions: both partners purified; remark: listed apart in the source
# cynoGITR ECD hFc [8] = target: T1, cynoGITR ECD hFc; experiment: as above; conditions: both partners purified
# T3 sequence (Q9Y5U5 26-241): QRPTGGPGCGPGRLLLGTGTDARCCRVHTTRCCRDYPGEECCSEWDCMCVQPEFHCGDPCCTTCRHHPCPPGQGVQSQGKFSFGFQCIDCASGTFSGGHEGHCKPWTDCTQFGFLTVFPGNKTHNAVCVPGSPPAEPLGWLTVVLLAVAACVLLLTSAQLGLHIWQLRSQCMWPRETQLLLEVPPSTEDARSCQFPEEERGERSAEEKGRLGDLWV
# T5 sequence (Q07011 24-186): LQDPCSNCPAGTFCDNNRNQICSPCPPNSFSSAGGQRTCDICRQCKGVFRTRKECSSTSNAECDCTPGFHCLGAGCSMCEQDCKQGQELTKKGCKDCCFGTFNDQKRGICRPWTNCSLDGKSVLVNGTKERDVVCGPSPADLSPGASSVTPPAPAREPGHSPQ
# T4 sequence (P43489 29-214): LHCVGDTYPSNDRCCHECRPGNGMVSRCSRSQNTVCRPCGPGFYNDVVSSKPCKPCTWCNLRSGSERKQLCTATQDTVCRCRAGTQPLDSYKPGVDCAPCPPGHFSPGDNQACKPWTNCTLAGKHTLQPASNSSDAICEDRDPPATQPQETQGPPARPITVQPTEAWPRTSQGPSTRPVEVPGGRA
Binder,"NF‐ĸB luciferase reporter assay, Crosslinking, EC50 [1] [nM]","NF‐ĸB luciferase reporter assay, Crosslinking, Top ratio [1] [fold]","NF‐ĸB luciferase reporter assay, No crosslinking, EC50 [1] [nM]","NF‐ĸB luciferase reporter assay, No crosslinking, Top ratio [1] [fold]",binding result (human OX40 ECD hFc),binding result (4‐1BB ECD hFc),EC50 (hGITR ECD hFc [2]) [nM],EC50 (cynoGITR ECD hFc [3]) [nM],Kd (hGITR ECD hFc [4]) [nM],EC50 [5] [nM],EC50 [6] [nM],EC50 (hGITR ECD hFc [7]) [nM],EC50 (cynoGITR ECD hFc [8]) [nM]
"hab019e2 (antibody, V domains shown, 3503‐hab019‐VH(EG + NLA); positions not given; as the VL of m12 (3503‐hab019‐Vk); Whole antibody, human IgG1 heavy chain constant region, human kappa light chain constant region; also called hab19e2; source: FreeStyle 293F, transiently co-transfected, purified from culture supernatant) VH: QVQLVESGGGVVQPGRSLRLSCAASGFTFSSYGMHWVRQAPGKGLEWVAVIWYAGSRKFYADSVEGRFTISRDNSKNTLYLQMNSLRAEDTAVYYCARGGSLEGGFFYYGMDVWGQGTTVTVSS VL: not shown",7.69,13,0.275,8,no binding,no binding,0.093,0.089,0.384,0.206,0.29,–,–
"hab070e1 (antibody, V domains shown, as the VH of m14 (3503‐hab070‐VH); 3503‐hab070‐Vk(C2Y); the substitution is against the VL of m14 (Cys in FR3 of VL); position not given; Whole antibody, human IgG1 heavy chain constant region, human kappa light chain constant region; also called hab70e1; source: FreeStyle 293F, transiently co-transfected, purified from culture supernatant) VH: QVQLVESGGGVVQPGRSLRLSCAASGFTFSSYGMHWVRQAPGKGLEWVAVIWYETSNKFYVDSVKGRFTISRDNSKNTLYLQMNSLRAEDTAVYYCARYGASSGWYWYFDLWGRGTLVTVSS VL: DIQLTQSPSFLSASVGDRVTITCRASQGISSFLAWYQQKPGKAPKLLIYAASTLQSGVPSRFSGSGSGTEFTLTISSLQPEDFATYYCQQLNSYPFTFGQGTKLEIK",6.78,12,0.262,7,no binding,no binding,0.101,0.111,0.537,0.164,0.268,–,–
"Tab9H6v3 (antibody, V domains shown, heavy chain variable region of clone 9H6v3 (AMGEN INC.); light chain variable region of clone 9H6v3 (AMGEN INC.)) VH: QVQLVESGGGVVQPGRSLRLSCVASGFTFSSYGMHWIRQAPGKGLEWVAVIWYEGSNKYYAESVKGRFTISRDNSKNTLYLQMNSLRAEDTAVYYCARGGRLGKDYYSGMDVWGQGTTVTVSS VL: DIQMTQSPSSLSASVGDRVTITCRASQGIRNDLGWYQQKPGKAPKRLIYATSSLQSGVPSRFSGSGSGTEFTLTISSLQPEDFATYYCLQHNTYPWTFGQGTKVEIK",8.86,14,0.787,11,–,–,0.088,0.09,0.135,0.184,0.235,0.0709,0.0637
